Earlier results in publication PMC9741594.

Target: T1, Internalin A (on whole Listeria monocytogenes cells) (Listeria monocytogenes (strain not given in the material)) (UniProt P0DJM0)
T1 sequence: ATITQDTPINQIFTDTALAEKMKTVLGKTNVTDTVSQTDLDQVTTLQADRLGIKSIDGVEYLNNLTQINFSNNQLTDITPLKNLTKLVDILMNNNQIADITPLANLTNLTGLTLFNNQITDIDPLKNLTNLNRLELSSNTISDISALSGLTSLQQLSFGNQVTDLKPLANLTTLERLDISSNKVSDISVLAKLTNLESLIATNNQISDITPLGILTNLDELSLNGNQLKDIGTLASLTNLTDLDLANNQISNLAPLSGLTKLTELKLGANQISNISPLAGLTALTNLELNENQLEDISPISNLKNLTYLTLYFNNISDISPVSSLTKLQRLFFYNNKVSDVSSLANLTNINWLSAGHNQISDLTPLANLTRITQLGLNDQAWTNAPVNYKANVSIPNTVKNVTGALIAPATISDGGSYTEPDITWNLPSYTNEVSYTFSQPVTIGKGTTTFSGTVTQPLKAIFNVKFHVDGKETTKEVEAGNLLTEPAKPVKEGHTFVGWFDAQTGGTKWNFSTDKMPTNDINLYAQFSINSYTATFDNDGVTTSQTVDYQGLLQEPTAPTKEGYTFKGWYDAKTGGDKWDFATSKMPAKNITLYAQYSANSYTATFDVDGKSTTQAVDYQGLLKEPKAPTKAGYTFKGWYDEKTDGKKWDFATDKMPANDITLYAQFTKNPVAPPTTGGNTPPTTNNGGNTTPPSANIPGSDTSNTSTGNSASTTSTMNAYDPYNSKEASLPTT
Assay: not stated (cited)
Conditions: printed as KD = 103 CFU/mL, read as 10^3; whole-cell units; 5' amine (immobilized by carbodiimide chemistry on ALG-thiomer/Pt); 5' thiol version also made; PBS, whole L. monocytogenes cells, 15 min capture at pH 7 (extended brush), EIS at pH 3 (collapsed), room temperature; also chicken broth

Sequence: ATCCATGGGGCGGAGATGAGGGGGAGGAGGGCGGGTACCCGGTTGAT [A8 anti-Internalin A aptamer]
- Kd: 1000 CFU/mL
